Assay results published in publication PMC12416549 (2024).
Residue numbers refer to the chain shown, from its start. In names and notes the source's numbering stands.

B1: L26K (designed binder)
chain: MTLQELLREEALRRAEAEAFRYALEKLAEKFPEQKEYLLDLAEEIESQIRSLSGVDVEDVRKFLDKEWAWVKELLAEHPAELAEVEAARAARLAELRAEVEAKVAA
B2: M1P (designed binder)
chain: B1 chain with M1P, K26L
B3: A17M (designed binder)
chain: B1 chain with A17M, K26L
B4: Q48G (designed binder)
chain: B1 chain with K26L, Q48G
B5: D59V (designed binder)
chain: B1 chain with K26L, D59V
B6: E77G (designed binder)
chain: B1 chain with K26L, E77G
B7: L39P (designed binder)
chain: B1 chain with K26L, L39P
B8: L6K (designed binder)
chain: B1 chain with L6K, K26L
B9: R97H (designed binder)
chain: B1 chain with K26L, R97H
B10: A76I (designed binder)
chain: B1 chain with K26L, A76I
B11: R14P (designed binder)
chain: B1 chain with R14P, K26L
B12: K66S (designed binder)
chain: B1 chain with K26L, K66S
B13: E73T (designed binder)
chain: B1 chain with K26L, E73T
B14: A83G (designed binder)
chain: B1 chain with K26L, A83G
B15: E43S (designed binder)
chain: B1 chain with K26L, E43S
B16: I45N (designed binder)
chain: B1 chain with K26L, I45N
B17: P32W (designed binder)
chain: B1 chain with K26L, P32W
B18: S51G (designed binder)
chain: B1 chain with K26L, S51G
B19: D65M (designed binder)
chain: B1 chain with K26L, D65M
B20: A94K (designed binder)
chain: B1 chain with K26L, A94K
B21: S47L (designed binder)
chain: B1 chain with K26L, S47L
B22: W68L (designed binder)
chain: B1 chain with K26L, W68L
B23: E33C (designed binder)
chain: B1 chain with K26L, E33C
B24: T2M (designed binder)
chain: B1 chain with T2M, K26L
B25: A102H (designed binder)
chain: B1 chain with K26L, A102H
B26: E86G (designed binder)
chain: B1 chain with K26L, E86G
B27: A98N (designed binder)
chain: B1 chain with K26L, A98N
B28: E99S (designed binder)
chain: B1 chain with K26L, E99S
B29: Y22G (designed binder)
chain: B1 chain with Y22G, K26L
B30: D40E (designed binder)
chain: B1 chain with K26L, D40E
B31: V57K (designed binder)
chain: B1 chain with K26L, V57K
B32: L75F (designed binder)
chain: B1 chain with K26L, L75F
B33: R89C (designed binder)
chain: B1 chain with K26L, R89C
B34: R50H (designed binder)
chain: B1 chain with K26L, R50H
B35: L12P (designed binder)
chain: B1 chain with L12P, K26L
B36: L64D (designed binder)
chain: B1 chain with K26L, L64D
B37: E29Q (designed binder)
chain: B1 chain with K26L, E29Q
B38: E99V (designed binder)
chain: B1 chain with K26L, E99V
B39: A105P (designed binder)
chain: B1 chain with K26L, A105P
B40: E101G (designed binder)
chain: B1 chain with K26L, E101G
B41: Q34V (designed binder)
chain: B1 chain with K26L, Q34V
B42: E95T (designed binder)
chain: B1 chain with K26L, E95T
B43: I45C (designed binder)
chain: B1 chain with K26L, I45C
B44: L7Y (designed binder)
chain: B1 chain with L7Y, K26L
B45: K35G (designed binder)
chain: B1 chain with K26L, K35G
B46: E46H (designed binder)
chain: B1 chain with K26L, E46H
B47: E25T (designed binder)
chain: B1 chain with E25T, K26L
B48: R61K (designed binder)
chain: B1 chain with K26L, R61K
B49: R8E (designed binder)
chain: B1 chain with R8E, K26L
B50: E10M (designed binder)
chain: B1 chain with E10M, K26L
B51: L39Y (designed binder)
chain: B1 chain with K26L, L39Y
B52: V104D (designed binder)
chain: B1 chain with K26L, V104D
B53: V55P (designed binder)
chain: B1 chain with K26L, V55P
B54: L75I (designed binder)
chain: B1 chain with K26L, L75I
B55: P79K (designed binder)
chain: B1 chain with K26L, P79K

Biological target: T1, TNFR1 (Homo sapiens, UniProt P19438)
T1 chain: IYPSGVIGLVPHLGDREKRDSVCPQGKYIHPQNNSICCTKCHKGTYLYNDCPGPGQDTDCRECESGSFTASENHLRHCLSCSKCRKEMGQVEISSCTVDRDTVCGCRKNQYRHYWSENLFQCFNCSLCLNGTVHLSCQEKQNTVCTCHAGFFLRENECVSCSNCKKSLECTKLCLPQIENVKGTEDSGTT
Assay: yeast display SC50

Point of comparison: B40, “apparent Kd (screen)” value 0.49 nM. Against it:
- B1 — within 1.5-fold, 0.718 nM
- B2 — within 1.5-fold, 0.446 nM
- B3 — within 1.5-fold, 0.446 nM
- B4 — within 1.5-fold, 0.718 nM
- B5 — within 1.5-fold, 0.653 nM
- B6 — within 1.5-fold, 0.593 nM
- B7 — 12-fold higher, 5.84 nM
- B8 — 14-fold higher, 7.07 nM
- B9 — within 1.5-fold, 0.593 nM
- B10 — within 1.5-fold, 0.653 nM
- B11 — the same, 0.49 nM
- B12 — the same, 0.49 nM
- B13 — within 1.5-fold, 0.718 nM
- B14 — within 1.5-fold, 0.539 nM
- B15 — the same, 0.49 nM
- B16 — 9.9-fold higher, 4.83 nM
- B17 — the same, 0.49 nM
- B18 — 3.4-fold higher, 1.69 nM
- B19 — within 1.5-fold, 0.718 nM
- B20 — within 1.5-fold, 0.653 nM
- B21 — within 1.5-fold, 0.653 nM
- B22 — within 1.5-fold, 0.539 nM
- B23 — within 1.5-fold, 0.593 nM
- B24 — the same, 0.49 nM
- B25 — 2.4-fold higher, 1.16 nM
- B26 — within 1.5-fold, 0.539 nM
- B27 — 1.8-fold higher, 0.869 nM
- B28 — 2-fold higher, 0.956 nM
- B29 — within 1.5-fold, 0.653 nM
- B30 — within 1.5-fold, 0.593 nM
- B31 — 2.4-fold higher, 1.16 nM
- B32 — 2.6-fold higher, 1.27 nM
- B33 — within 1.5-fold, 0.653 nM
- B34 — within 1.5-fold, 0.539 nM
- B35 — 2.1-fold higher, 1.05 nM
- B36 — 55-fold higher, 26.9 nM
- B37 — within 1.5-fold, 0.539 nM
- B38 — within 1.5-fold, 0.446 nM
- B39 — 1.6-fold higher, 0.79 nM
- B41 — within 1.5-fold, 0.405 nM
- B42 — within 1.5-fold, 0.539 nM
- B43 — 5.1-fold higher, 2.48 nM
- B44 — 26-fold higher, 12.5 nM
- B45 — the same, 0.49 nM
- B46 — within 1.5-fold, 0.539 nM
- B47 — within 1.5-fold, 0.405 nM
- B48 — within 1.5-fold, 0.446 nM
- B49 — the same, 0.49 nM
- B50 — 5.1-fold higher, 2.48 nM
- B51 — 3.4-fold higher, 1.69 nM
- B52 — within 1.5-fold, 0.718 nM
- B53 — within 1.5-fold, 0.653 nM
- B54 — 1.6-fold higher, 0.79 nM
- B55 — within 1.5-fold, 0.593 nM
